Patent US20240052048A1 (SUZHOU QIN PHARMACEUTICALS, published 2024)
Read-outs that look alike come from different tables or passages of the source.

B1: human BCMA (recombinant antigen, tag not stated for the assay) (receptor, UniProt Q02223 1-54, looked up)
chain: MLQMAGQCSQNEYFDSLLHACIPCQLRCSSNTPPLTCQRYCNASVTNSVKGTNA
notes: The ELISA and screening sections say only 'human BCMA'; also called human BCMA antigen

Key:
[1] = target: T1, human-APRIL-Fc (human, UniProt O75888 115-250, limits assumed); assay: ELISA (OD450), plate coated with APRIL 1 µg/ml, human BCMA titrated up to 10 µg/mL; EC50 table in the figure
T1 construct: Bought from ACRO Biosystems, APL-H5267; also called human APRIL protein; ACRO Biosystems APL-H5267; not shown: Fc tag
T1 sequence (looked up): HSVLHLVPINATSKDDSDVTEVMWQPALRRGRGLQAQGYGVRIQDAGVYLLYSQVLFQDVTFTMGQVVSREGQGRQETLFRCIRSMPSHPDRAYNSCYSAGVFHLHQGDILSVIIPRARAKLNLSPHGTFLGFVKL

[2] = target: T1, human-APRIL-Fc; assay: ELISA (OD450), plate coated with APRIL 2 µg/ml, human BCMA titrated up to 10 µg/mL; EC50 table in the figure
[3] = target: T1, human-APRIL-Fc; assay: ELISA (OD450), plate coated with APRIL 4 µg/ml, human BCMA titrated up to 10 µg/mL; EC50 table in the figure
[4] = target: T1, human-APRIL-Fc; assay: ELISA (OD450), plate coated with APRIL 8 µg/ml, human BCMA titrated up to 10 µg/mL; EC50 table in the figure
[5] = target: B1; assay: ELISA (OD450) on coated human BCMA; EC50 table in the figure
[6] = target: B1; assay: as above; remark: listed apart in the source
[7] = target: B1; assay: as above; remark: listed apart in the source
[8] = target: T2, monkey BCMA (recombinant antigen, tag not stated for the assay) (monkey, UniProt A0A2K5UD97 1-53); assay: ELISA (OD450) on coated monkey BCMA; EC50 table in the figure
T2 construct: The ELISA, screening and BLI sections say only 'monkey BCMA' or 'monkey BCMA protein'; also called monkey BCMA protein; monkey BCMA antigen; not shown: The carrier tag (human IgG1 Fc or His tag) of the bought ACRO antigen
T2 sequence (A0A2K5UD97 entry or part of it limits assumed): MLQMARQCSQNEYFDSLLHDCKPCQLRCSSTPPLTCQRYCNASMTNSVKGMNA

[9] = target: T2, monkey BCMA (recombinant antigen, tag …); assay: as above; remark: listed apart in the source
[10] = target: T2, monkey BCMA (recombinant antigen, tag …); assay: as above; remark: listed apart in the source
[11] = target: T3, human-BCMA-Fc (human, UniProt Q02223 1-54); assay: BLI (Octet RED96), antibody on FAB2G sensor, human BCMA-Fc at 200, 50, 12.5 nM
T3 construct: Bought from ACRO Biosystems, catalog BC7-H5254; also called ACRO Biosystems BC7-H5254; not shown: Fc tag
T3 sequence (looked up): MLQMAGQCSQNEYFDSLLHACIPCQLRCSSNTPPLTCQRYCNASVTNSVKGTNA

[12] = target: T2, monkey BCMA (recombinant antigen, tag …); assay: BLI (Octet RED96), antibody on FAB2G sensor, monkey BCMA protein at 200, 50, 12.5 nM
[13] = target: T4, monkey BCMA on BCMA-CHO cells (cynomolgus monkey, UniProt A0A2K5UD97 1-183); assay: flow cytometry (MFI) on CHO cells expressing monkey BCMA; EC50 table in the figure
T4 construct: whole, on cells; also called monkey BCMA-CHO cells; CHO cells overexpressing monkey BCMA
T4 sequence (A0A2K5UD97 entry or part of it): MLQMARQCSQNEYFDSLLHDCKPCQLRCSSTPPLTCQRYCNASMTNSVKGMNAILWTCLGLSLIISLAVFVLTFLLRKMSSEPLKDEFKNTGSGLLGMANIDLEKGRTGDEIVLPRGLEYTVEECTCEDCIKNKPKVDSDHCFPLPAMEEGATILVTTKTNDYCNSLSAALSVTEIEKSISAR

[14] = target: T5, human BCMA on BCMA-HEK293 cells (human, UniProt Q02223 1-184); assay: flow cytometry (MFI) on HEK293 cells expressing human BCMA; EC50 table in the figure
T5 construct: whole, on cells; also called human BCMA-HEK293 cells; HEK293 cells overexpressing human BCMA
T5 sequence (looked up): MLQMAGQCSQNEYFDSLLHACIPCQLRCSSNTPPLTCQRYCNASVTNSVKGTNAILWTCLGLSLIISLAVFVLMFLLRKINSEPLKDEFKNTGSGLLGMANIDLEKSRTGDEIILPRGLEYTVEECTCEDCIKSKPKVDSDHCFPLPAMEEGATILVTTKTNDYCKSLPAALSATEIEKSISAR

[15] = target: T5, human BCMA on BCMA-HEK293 cells; assay: as above; remark: listed apart in the source
[16] = target: T3, human-BCMA-Fc; assay: ELISA (OD450), GSK2857916 titrated up to 10 µg/mL on Human BCMA-Fc; EC50 table in the figure
[17] = target: T6, human-BCMA-His (human, UniProt Q02223 1-54); assay: ELISA (OD450), GSK2857916 titrated up to 10 µg/mL on Human BCMA-His; EC50 table in the figure
T6 construct: Bought from ACRO Biosystems, catalog BCA-H522y; also called ACRO Biosystems BCA-H522y; not shown: His tag
T6 sequence (looked up): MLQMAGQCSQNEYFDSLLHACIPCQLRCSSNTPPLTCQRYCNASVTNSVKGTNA

[18] = target: T4, monkey BCMA on BCMA-CHO cells; assay: flow cytometry (MFI) on CHO cells expressing monkey BCMA; EC50 table in the figure; curve still rising at 10 µg/mL
[19] = target: T7, human BCMA on H929 cells (human, UniProt Q02223 1-184); assay: flow cytometry (MFI) on myeloma cell line H929 expressing BCMA; EC50 table in the figure; curve still rising at about 60 µg/mL
T7 construct: whole, on cells; also called human myeloma cell line H929 cells expressing BCMA
T7 sequence (looked up): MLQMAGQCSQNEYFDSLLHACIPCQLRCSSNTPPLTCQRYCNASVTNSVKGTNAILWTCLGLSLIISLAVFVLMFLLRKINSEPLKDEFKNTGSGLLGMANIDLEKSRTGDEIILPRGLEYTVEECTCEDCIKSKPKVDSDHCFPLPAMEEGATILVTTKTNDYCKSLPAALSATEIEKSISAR

[20] = target: T8, Biotin-labeled human BCMA (human, UniProt Q02223 1-54, limits assumed, Biotin-labeled (site not stated)); assay: blocking ELISA (OD450): human BAFF coated, antibody premixed with Biotin-labeled human BCMA; blocked ligand BAFF; IC50 table in the figure
T8 sequence (looked up): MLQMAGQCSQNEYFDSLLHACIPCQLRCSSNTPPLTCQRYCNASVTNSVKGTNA

[21] = target: T8, Biotin-labeled human BCMA; assay: as above; remark: listed apart in the source
[22] = target: T8, Biotin-labeled human BCMA; assay: as above; remark: listed apart in the source
[23] = target: T8, Biotin-labeled human BCMA; assay: blocking ELISA (OD450): human APRIL coated, antibody premixed with Biotin-labeled human BCMA; blocked ligand APRIL; IC50 table in the figure
[24] = target: T8, Biotin-labeled human BCMA; assay: as above; remark: listed apart in the source
[25] = target: T8, Biotin-labeled human BCMA; assay: as above; remark: listed apart in the source

## B1
[1]
  EC50: 1.07 µg/mL
[2]
  EC50: 1.28 µg/mL
[3]
  EC50: 1.57 µg/mL
[4]
  EC50: 2.05 µg/mL

B2: GSK2857916 (positive control antibody, not coupled to the toxin molecule) (antibody, V domains shown)
VH: QVQLVQSGAEVKKPGSSVKVSCKASGGTFSNYWMHWVRQAPGQGLEWMGATYRGHSDTYYNQKFKGRVTITADKSTSTAYMELSSLRSEDTAVYYCARGAIYDGYDVLDNWGQGTLVTVSS
VL: DIQMTQSPSSLSASVGDRVTITCSASQDISNYLNWYQQKPGKAPKLLIYYTSNLHSGVPSRFSGSGSGTDFTLTISSLQPEDFATYYCQQYRKLPWTFGQGTKLEIK
notes: also called Belantamab mafodotin antibody; positive antibody
[5]
  EC50: 0.514 µg/mL
[6]
  EC50: 0.772 µg/mL
[7]
  EC50: 0.642 µg/mL
[8]
  EC50: 0.341 µg/mL
[9]
  EC50: 0.749 µg/mL
[10]
  EC50: 0.862 µg/mL
[11]
  Kd: 0.0539 nM
  koff: 1.19e-05 s⁻¹
  kon: 220000 M⁻¹ s⁻¹
[12]
  Kd: 0.352 nM
  koff: 0.000111 s⁻¹
  kon: 317000 M⁻¹ s⁻¹
[13]
  EC50: 2.88 µg/mL
[14]
  EC50: 0.293 µg/mL
[15]
  EC50: 1.09 µg/mL
[16]
  EC50: 0.304 µg/mL
[17]
  EC50: 0.77 µg/mL
[18]
  EC50: 7.22 µg/mL
[19]
  EC50: 6.8 µg/mL
[20]
  IC50: 1.41 µg/mL
[21]
  IC50: 1.37 µg/mL
[22]
  IC50: 1.36 µg/mL
[23]
  IC50: 1.6 µg/mL
[24]
  IC50: 1.51 µg/mL
[25]
  IC50: 1.79 µg/mL
